These results are taken from the supplement of paper PMC11246515.

This data set in a line: total protein half-life in vivo (active degradation + dilution); higher = more stable protein.
The mark [1] stands for this setting: E. coli NCM3722 delta-clpP delta-lon delta-hslV, growth: N-lim chemostat, doubling time 6 h.
[2] abbreviates: E. coli NCM3722 delta-clpP, growth: N-lim chemostat, doubling time 6 h.
Setting [3] is: E. coli NCM3722 delta-hslV, growth: N-lim chemostat, doubling time 6 h.
Where [4] appears, read: E. coli NCM3722 delta-lon, growth: N-lim chemostat, doubling time 6 h.
Where [5] appears, read: E. coli NCM3722 delta-smpB, growth: N-lim chemostat, doubling time 6 h.
The mark [6] stands for this setting: wild type E. coli NCM3722, growth: C-lim chemostat, doubling time 3 h.
Setting [7] is: wild type E. coli NCM3722, growth: C-lim chemostat, doubling time 6 h.
Where [8] appears, read: wild type E. coli NCM3722, growth: C-lim chemostat, doubling time 12 h.
[9] abbreviates: wild type E. coli NCM3722, growth: N-lim chemostat, doubling time 6 h.
The mark [10] stands for this setting: wild type E. coli NCM3722, growth: N-lim chemostat, doubling time 12 h.
[11] abbreviates: wild type E. coli NCM3722, growth: P-lim chemostat, doubling time 6 h.
Where [12] appears, read: wild type E. coli NCM3722, growth: P-lim chemostat, doubling time 12 h.

± gives the standard deviation of the averaged measurements.

For the sequence “MNMLEKIQSQLEHLSKSERKVAEVILASPDNAIHSSIAAMALEANVSEPTVNRFCRSMDTRGFPDFKLHLAQSLANGTPYVNRNVNEDDSVESYTGKIFESAMATLDHVRHSLDKSAINRAVDLLTQAKKIAFFGLGSSAAVAHDAMNKFFRFNVPVVYSDDIVLQRMSCMNCSDGDVVVLISHTGRTKNLVELAQLARENDAMVIALTSAGTPLAREATLAITLDVPEDTDIYMPMVSRLAQLTVIDVLATGFTLRRGAKFRDNLKRVKEALKESRFDKQLLNLSDDR”, the “total protein half-life in vivo” value is 6.3 ± 1.1 h under setting [1]; 4.86 ± 0.47 h under setting [2]; 3.12 ± 0.53 h under setting [3]; 3.65 ± 0.91 h under setting [4]; 3.23 ± 0.018 h under setting [5]; 2.26 ± 0.21 h under setting [6]. Further, the “total protein half-life in vivo” value runs as follows: under setting [7], 4.52 ± 1.7 h; under setting [8], 5.45 ± 0.083 h; under setting [9], 3.77 ± 0.28 h; under setting [10], 4.38 ± 0.15 h; under setting [11], 2 ± 0.28 h; under setting [12], 4.1 ± 1.5 h.
With “MSDTLLTLRDVHINFPARKNWLGKTTEHVHAINGIDLQIRRGETLGIVGESGCGKSTLAQLLMGMLQPSHGQYIRSGSQRIMQMVFQDPLSSLNPRLPVWRIITEPLWIAKRSSEQQRRALAEELAVQVGIRPEYLDRLPHAFSGGQRQRIAIARALSSQPDVIVLDEPTSALDISVQAQILNLLVTLQENHGLTYVLISHNVSVIRHMSDRVAVMYLGQIVELGDAQQVLTAPAHPYTRLLLDSLPAIDKPLEEEWALRKTDLPGNRTLPQGCFFYERCPLATHGCEVRQSLAIREDGRELRCWRAL”, the “total protein half-life in vivo” value runs as follows: under setting [2], 3.45 h; under setting [5], 4.17 ± 0.074 h; under setting [6], 1.74 h; under setting [7], 4.55 h; under setting [9], 4.44 h; under setting [10], 6.31 ± 0.42 h.
Take “MHAYLHCLSHSPLVGYVDPAQEVLDEVNGVIASARERIAAFSPELVVLFAPDHYNGFFYDVMPPFCLGVGATAIGDFGSAAGELPVPVELAEACAHAVMKSGIDLAVSYCMQVDHGFAQPLEFLLGGLDKVPVLPVFINGVATPLPGFQRTRMLGEAIGRFTSTLNKRVLFLGSGGLSHQPPVPELAKADAHMRDRLLGSGKDLPASERELRQQRVISAAEKFVEDQRTLHPLNPIWDNQFMTLLEQGRIQELDAVSNEELSAIAGKSTHEIKTWVAAFAAISAFGNWRSEGRYYRPIPEWIAGFGSLSARTEN [P0ABR9]”: the “total protein half-life in vivo” value under setting [1] was 5.32 h.
Regarding “MTELKNDRYLRALLRQPVDVTPVWMMRQAGRYLPEYKATRAQAGDFMSLCKNAELACEVTLQPLRRYPLDAAILFSDILTVPDAMGLGLYFEAGEGPRFTSPVTCKADVDKLPIPDPEDELGYVMNAVRTIRRELKGEVPLIGFSGSPWTLATYMVEGGSSKAFTVIKKMMYADPQALHALLDKLAKSVTLYLNAQIKAGAQAVMIFDTWGGVLTGRDYQQFSLYYMHKIVDGLLRENDGRRVPVTLFTKGGGQWLEAMAETGCDALGLDWTTDIADARRRVGNKVALQGNMDPSMLYAPPARIEEEVATILAGFGHGEGHVFNLGHGIHQDVPPEHAGVFVEAVHRLSEQYHR”, the “total protein half-life in vivo” value amounted to 4.03 ± 0.26 h under setting [1]; 3.74 ± 0.17 h under setting [2]; 3.83 ± 0.17 h under setting [3]; 4.15 ± 0.56 h under setting [4]; 3.93 ± 0.27 h under setting [5]; 2.94 ± 0.43 h under setting [6]. Also, the “total protein half-life in vivo” value runs as follows: under setting [7], 5.94 ± 0.61 h; under setting [8], 8.76 ± 0.76 h; under setting [9], 4.31 ± 0.093 h; under setting [10], 6.62 ± 0.27 h; under setting [11], 5.88 ± 0.075 h; under setting [12], 10.4 ± 0.69 h.
As to “MEKNSLFSQRIRLRHLHTFVAVAQQGTLGRAAETLNLSQPALSKTLNELEQLTGARLFERGRQGAQLTLPGEQFLTHAVRVLDAINTAGRSLHRKEGLNNDVVRVGALPTAALGILPSVIGQFHQQQKETTLQVATMSNPMILAGLKTGEIDIGIGRMSDPELMTGLNYELLFLESLKLVVRPNHPLLQENVTLSRVLEWPVVVSPEGTAPRQHSDALVQSQGCKIPSGCIETLSASLSRQLTVEYDYVWFVPSGAVKDDLRHATLVALPVPGHGAGEPIGILTRVDATFSSGCQLMINAIRKSMPF”, the “total protein half-life in vivo” value reads like this: under setting [1], 5.7 ± 0.088 h; under setting [2], 2.66 ± 1.2 h; under setting [3], 2.014 ± 0.017 h; under setting [4], 4.21 ± 0.12 h; under setting [5], 1.61 ± 0.065 h; under setting [6], 1.77 ± 0.26 h. For the same sequence, the “total protein half-life in vivo” value came out at 3.159 ± 0.0044 h under setting [7]; 4.49 ± 0.46 h under setting [8]; 2.01 ± 0.12 h under setting [9]; 2.5 ± 0.039 h under setting [10]; 2.67 ± 0.7 h under setting [11]; 3.86 ± 0.13 h under setting [12].
On to “MNVNFFVTCIGDALKSRMARDSVLLLEKLGCRVNFPEKQGCCGQPAINSGYIKEAIPGMKNLIAALEDNDDPIISPAGSCTYAVKSYPTYLADEPEWASRAAKVAARMQDLTSFIVNKLGVVDVGASLQGRAVYHPSCSLARKLGVKDEPLTLLKNVRGLELLTFAEQDTCCGFGGTFSVKMAEISGEMVKEKVAHLMEVRPEYLIGADVSCLLNISGRLQREGQKVKVMHIAEVLMSR”, for which the “total protein half-life in vivo” value is, setting by setting: under setting [1], 4.88 ± 0.35 h; under setting [2], 2.8 h; under setting [3], 3.22 ± 0.43 h; under setting [4], 4.91 h; under setting [5], 3.17 ± 0.06 h; under setting [6], 3.05 ± 0.46 h. Moreover, the “total protein half-life in vivo” value is, setting by setting: under setting [7], 4.67 ± 0.46 h; under setting [8], 8.01 ± 0.23 h; under setting [9], 4.38 ± 0.39 h; under setting [10], 6.19 ± 1.3 h; under setting [11], 4.49 h; under setting [12], 8.05 ± 0.092 h.
